Laboratory results from publication PMC4174438.

Target: RtcA (RNA 3'-phosphate cyclase) (Pyrococcus horikoshii, UniProt O59198 1-341)
Assay: EMSA

RtcA (RNA 3'-phosphate cyclase), sequence (O59198 whole entry): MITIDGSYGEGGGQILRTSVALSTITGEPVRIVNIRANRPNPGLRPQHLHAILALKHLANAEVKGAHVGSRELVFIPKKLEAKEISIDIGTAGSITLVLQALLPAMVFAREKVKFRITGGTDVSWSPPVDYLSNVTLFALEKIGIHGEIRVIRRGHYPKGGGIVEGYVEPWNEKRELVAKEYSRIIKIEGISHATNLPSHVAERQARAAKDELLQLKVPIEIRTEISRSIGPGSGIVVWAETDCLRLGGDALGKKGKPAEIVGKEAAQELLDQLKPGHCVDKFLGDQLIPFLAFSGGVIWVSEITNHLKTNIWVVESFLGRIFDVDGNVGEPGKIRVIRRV

Q: Does CGUUUU (ssRNA, 3'-phosphate) [U6 6-mer RNA 3'-p] bind?
A: binds
